Earlier results in article PMC4059559.

Tests used:
[1] = target: His131 (UniProt position 131, WGVCTHLGCVP); test: other
[2] = target: His152 (UniProt position 152, WFCPCHGSHYD); test: other
[3] = oxidised ISP (ISPox), isolated protein

Q: Which pKa [1, 3] does the source give for “Rieske iron-sulfur protein (ISP) of the cytochrome bc1 complex, isolated (Rhodobacter sphaeroides)” here?
A: Its pKa is about 9.6.

Q: And the pKa ([1]; reduced ISP (ISPH))?
A: The pKa was ~12–13.

Q: What about the pKa [2, 3] of the same substance?
A: The pKa was about 7.6.

Q: What about the pKa ([2]; reduced ISP (ISPH)) of the same substance?
A: Its pKa is ~12–13.
